Molecular target: GST-Ypt1p (S. cerevisiae) (UniProt P01123)
Test: pull-down

Chain of GST-Ypt1p (S. cerevisiae) (P01123 whole entry): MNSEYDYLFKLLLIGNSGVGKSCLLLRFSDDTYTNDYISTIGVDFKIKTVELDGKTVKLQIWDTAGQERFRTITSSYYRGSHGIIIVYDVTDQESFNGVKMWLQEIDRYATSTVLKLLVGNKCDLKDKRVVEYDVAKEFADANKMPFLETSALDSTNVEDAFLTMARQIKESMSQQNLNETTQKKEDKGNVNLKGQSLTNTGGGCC

fold less binding than with GTP-loaded GST-Ypt1p: > 5 fold
percent of the complex bound: > 50%
Substance: purified Sec34/35 complex, P40094 1-801; P53271 1-262; Q06096 1-861; P53079 1-417; P53959 1-839
